Laboratory results from US20170081400A1 (CEPHALON, published 2017).
Numbering of substitutions follows the chain as printed.

T1: human TL1A extracellular domain with N-terminal HIS and FLAG tag (human, UniProt O95150 72-251)
T1 sequence: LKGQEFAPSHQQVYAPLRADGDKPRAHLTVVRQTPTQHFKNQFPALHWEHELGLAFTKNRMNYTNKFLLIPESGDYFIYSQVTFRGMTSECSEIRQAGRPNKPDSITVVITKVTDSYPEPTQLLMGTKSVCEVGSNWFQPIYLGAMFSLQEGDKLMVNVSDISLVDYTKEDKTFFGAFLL

T2: human TL1A extracellular domain with N-terminal HIS and FLAG tag (human, UniProt O95150 72-251)
T2 construct: whole entry named. ~70 kDa fraction purified by gel filtration
T2 sequence: T1 sequence

B1: 320-277 (antibody, human IgG1, V domains shown)
VH: QVQLVQSGAEVKKPGASVKVSCKASGYTFTSYDINWVRQAPGQGLEWMGWLNPNSGNTGYAQKFQGRVTMTADRSTSTAYMELSSLRSEDTAVYYCAREVPETAAFEYWGQGTLVTVSS
VL: QSVLTQPPSVSGAPGQRVTISCTSSSSDIGAGSGVHWYQQLPGTAPKLLIEGYYNRPSGVPDRFSGSKSGTSASLTITGLLPEDEGDYYCQSYDGTLSALFGGGTKLTVLG
B2: 320-278 (antibody, human IgG1, V domains shown)
VH: B1 VH
VL: B1 VL with S33Q
B3: 320-547 (antibody, human IgG1, name in Kabat numbering, V domains shown)
VH: B1 VH with N57Y
VL: B1 VL with S33L
notes: full-length human IgG1, lambda
B4: 320-256 (antibody, human IgG1, name in Kabat numbering, V domains shown)
VH: B1 VH
VL: B1 VL with G30L, S33L
notes: human IgG1, lambda
B5: 320-261 (antibody, human IgG1, name in Kabat numbering, V domains shown)
VH: B1 VH
VL: B1 VL with A31D, S33L
notes: human IgG1, lambda
B6: 320-266 (antibody, human IgG1, name in Kabat numbering, V domains shown)
VH: B1 VH
VL: B1 VL with A31Y, S33L
notes: human IgG1, lambda
B7: 320-292 (antibody, human IgG1, name in Kabat numbering, V domains shown)
VH: B1 VH
VL: B1 VL with S33L, G34Y
notes: human IgG1, lambda
B8: 320-282 (antibody, human IgG1, name in Kabat numbering, V domains shown)
VH: B1 VH
VL: B1 VL with S33W
notes: human IgG1, lambda
B9: 320-257 (antibody, human IgG1, name in Kabat numbering, V domains shown)
VH: B1 VH
VL: B1 VL with G30W, S33L
notes: human IgG1, lambda
B10: 320-271 (antibody, human IgG1, name in Kabat numbering, V domains shown)
VH: B1 VH
VL: B1 VL with G32H, S33L
notes: human IgG1, lambda
B11: 320-275 (antibody, human IgG1, name in Kabat numbering, V domains shown)
VH: B1 VH
VL: B1 VL with G32Y, S33L
notes: human IgG1, lambda
B12: 320-281 (antibody, human IgG1, name in Kabat numbering, V domains shown)
VH: B1 VH
VL: B1 VL with S33K
notes: human IgG1, lambda
B13: 320-269 (antibody, human IgG1, name in Kabat numbering, V domains shown)
VH: B1 VH
VL: B1 VL with G32Q, S33L
notes: human IgG1, lambda
B14: 320-268 (antibody, human IgG1, name in Kabat numbering, V domains shown)
VH: B1 VH
VL: B1 VL with G32S, S33L
notes: human IgG1, lambda
B15: 320-262 (antibody, human IgG1, name in Kabat numbering, V domains shown)
VH: B1 VH
VL: B1 VL with A31H, S33L
notes: human IgG1, lambda
B16: 320-304 (antibody, human IgG1, name in Kabat numbering, V domains shown)
VH: B1 VH
VL: B1 VL with S33L, H36Q
notes: human IgG1, lambda
B17: 320-293 (antibody, human IgG1, name in Kabat numbering, V domains shown)
VH: B1 VH
VL: B1 VL with S33L, V35A
notes: human IgG1, lambda
B18: 320-265 (antibody, human IgG1, name in Kabat numbering, V domains shown)
VH: B1 VH
VL: B1 VL with A31W, S33L
notes: human IgG1, lambda
B19: 320-259 (antibody, human IgG1, name in Kabat numbering, V domains shown)
VH: B1 VH
VL: B1 VL with A31S, S33L
notes: human IgG1, lambda
B20: 320-298 (antibody, human IgG1, name in Kabat numbering, V domains shown)
VH: B1 VH
VL: B1 VL with S33L, V35K
notes: human IgG1, lambda
B21: 320-294 (antibody, human IgG1, name in Kabat numbering, V domains shown)
VH: B1 VH
VL: B1 VL with S33L, V35S
notes: human IgG1, lambda
B22: 320-264 (antibody, human IgG1, name in Kabat numbering, V domains shown)
VH: B1 VH
VL: B1 VL with A31L, S33L
notes: human IgG1, lambda
B23: 320-299 (antibody, human IgG1, name in Kabat numbering, V domains shown)
VH: B1 VH
VL: B1 VL with S33L, V35L
notes: human IgG1, lambda
B24: 320-296 (antibody, human IgG1, name in Kabat numbering, V domains shown)
VH: B1 VH
VL: B1 VL with S33L, V35D
notes: human IgG1, lambda
B25: 320-303 (antibody, human IgG1, name in Kabat numbering, V domains shown)
VH: B1 VH
VL: B1 VL with S33L, H36S
notes: human IgG1, lambda
B26: 320-260 (antibody, human IgG1, name in Kabat numbering, V domains shown)
VH: B1 VH
VL: B1 VL with A31Q, S33L
notes: human IgG1, lambda
B27: 320-295 (antibody, human IgG1, name in Kabat numbering, V domains shown)
VH: B1 VH
VL: B1 VL with S33L, V35Q
notes: human IgG1, lambda
B28: 320-279 (antibody, human IgG1, name in Kabat numbering, V domains shown)
VH: B1 VH
VL: B1 VL with S33D
notes: human IgG1, lambda
B29: 320-276 (antibody, human IgG1, name in Kabat numbering, V domains shown)
VH: B1 VH
VL: B1 VL with S33A
notes: human IgG1, lambda

These binders were tested against T1, human TL1A extracellular domain with … (assay: cell-based or functional assay).

Row | Binder | Antibody IC50, TL1A induced caspase potency assay in TF-1 cells [ng/mL] | Fold improvement over 320-179, TL1A induced caspase potency assay in TF-1 cells [fold]
1 | B1 | 3 | 3
2 | B2 | 10 | 2
3 | B3 | 4 | 10

These binders were tested against T1, human TL1A extracellular domain with … (assay: SPR Run 7, antibody on Protein A, TL1A 5 ug/mL, timepoint 44).
In short: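 Biacore T200 SPR with antibody (supernatant or Protein A-purified) captured on Protein A amine-coupled to a CM5 chip; capture level recorded as response change at end of capture.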

Row | Binder | TL1A Binding Level (Early) [RU]
4 | B3 | 77

What follows are binders tested against T1, human TL1A extracellular domain with … (assay: SPR Run 7, antibody on Protein A, TL1A 5 ug/mL, timepoint 220).
In short: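 The capture level was the response change at the end of loading, which varied by run. Antigen response was read before dissociation ended, double-referenced against a reference flow cell and a buffer blank.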

Row | Binder | TL1A Binding Level (Late) [RU]
5 | B3 | 75

Each binder was assayed against T2, human TL1A extracellular domain with … (assay: SPR run 3; supernatant on Protein A; TL1A 10 ug/mL; timepoint 59).
Source text: (§1) 1.5. Antibody expression and antigen binding as determined by SPR. Using a CM5 sensor chip (GE Healthcare) Protein A (Pierce) was coupled to the chip surface using an amine coupling kit (GE Healthcare). Protein A was coupled on flow cell 1 and 2 (or alternatively 3 and 4) using a BIACORE® T200. […] The amount of supernatant or purified protein (as well as the concentration) injected during the capture stage varied between runs and is specified in the header of the Tables 3-11. At the end of injection of the supernatant or purified antibody the change in response units was measured. This value was reported as Capture Level in Tables 3-11. […] The response units were measured prior to the end of the dissociation phase. […] The sensorgrams were double referenced (flow cell 2 is subtracted from flow cell 1 and a buffer blank). As there were a large number of antibody variants to screen, these were screened across different runs (Tables 3-11). […] A summary of the conditions used in each run is below:
(§2) 2.1. […] In some experiment the antibodies were purified using Protein A chromatography (See 1.4) and purified antibodies were used in BIACORE® (GE Healthcare) experiments.

Row | Binder | TL1A Binding Level (Early) [RU]
6 | B4 | 30
7 | B5 | 86
8 | B6 | 218
9 | B7 | 111
10 | B8 | 75
11 | B9 | 83
12 | B10 | 106
13 | B11 | 44
14 | B12 | 22
15 | B13 | 126
16 | B14 | 28
17 | B15 | 209
18 | B16 | 103
19 | B17 | 104
20 | B18 | 168
21 | B19 | 194
22 | B20 | 114
23 | B21 | 79
24 | B22 | 199
25 | B23 | 51
26 | B24 | 118
27 | B25 | 71
28 | B26 | 182
29 | B27 | 109
30 | B28 | 144
31 | B29 | 244

These binders were tested against T2, human TL1A extracellular domain with … (assay: SPR run 3; supernatant on Protein A; TL1A 10 ug/mL; timepoint 590).
Source text: as §1, §2

Row | Binder | TL1A Binding Level (Late) [RU]
32 | B4 | 10
33 | B5 | 29
34 | B6 | 192
35 | B7 | 94
36 | B8 | 16
37 | B9 | 18
38 | B10 | 30
39 | B11 | 10
40 | B12 | 6
41 | B13 | 93
42 | B14 | 7
43 | B15 | 190
44 | B16 | 82
45 | B17 | 86
46 | B18 | 69
47 | B19 | 179
48 | B20 | 100
49 | B21 | 61
50 | B22 | 184
51 | B23 | 13
52 | B24 | 104
53 | B25 | 32
54 | B26 | 165
55 | B27 | 94
56 | B28 | 128
57 | B29 | 215
